From PMC6627510 (2019)

Target: Stl_(SaPIbov1) protein (staphylococcal repressor) (Staphylococcus aureus)
Test: ITC

Binder | Kd [nM]
Escherichia coli dUTPase Q93H mutant (enzyme) not shown | 60.8
Escherichia coli dUTPase Q93R mutant (enzyme) not shown | 97.2
